The text below walks through data of PMC1702487.

Common to all, as to assay: AUC
Test [1] has as its target I-CreI 28K30N33H38Q40S44K68A70S75N (combinatorial mutant KNHQS/KAS) (Chlamydomonas reinhardti).
Test [2] concerns the target I-CreI 28K30N33H38Q40S44K68E70G75N (combinatorial mutant KNHQS/KEG) (Chlamydomonas reinhardti).
For test [3], the target named is I-CreI 28N30N33S38R40K44A68R70R75N (combinatorial mutant NNSRK/ARR) (Chlamydomonas reinhardti).
The target in test [4] is I-CreI 28N30N33S38R40K44A68S70R75N (combinatorial mutant NNSRK/ASR) (Chlamydomonas reinhardti).

Broadly, the stoichiometry N is a count of units in the complex or per binding partner. On to “I-CreI 28K30N33H38Q40S44K68A70S75N (combinatorial mutant KNHQS/KAS) (enzyme)”, for which, in test [1], the stoichiometry N is 2.

As for “I-CreI 28K30N33H38Q40S44K68E70G75N (combinatorial mutant KNHQS/KEG) (enzyme)”, the stoichiometry N in test [2] was determined as 2.

With “I-CreI 28N30N33S38R40K44A68R70R75N (combinatorial mutant NNSRK/ARR) (enzyme)”, in test [3], the stoichiometry N is 2.

For the substance “I-CreI 28N30N33S38R40K44A68S70R75N (combinatorial mutant NNSRK/ASR) (enzyme)”, in test [4], the stoichiometry N is 2.
